The results in this text go back to IntAct's records for PubMed 31515488.

Sequences and labels used below:
B1: Keratin, type I cytoskeletal 40 (Homo sapiens), Q6A162 (parent)
chain: MTSDCSSTHCSPESCGTASGCAPASSCSVETACLPGTCATSRCQTPSFLSRSRGLTGCLLPCYFTGSCNSPCLVGNCAWCEDGVFTSNEKETMQFLNDRLASYLEKVRSLEETNAELESRIQEQCEQDIPMVCPDYQRYFNTIEDLQQKILCTKAENSRLAVQLDNCKLATDDFKSKYESELSLRQLLEADISSLHGILEELTLCKSDLEAHVESLKEDLLCLKKNHEEEVNLLREQLGDRLSVELDTAPTLDLNRVLDEMRCQCETVLANNRREAEEWLAVQTEELNQQQLSSAEQLQGCQMEILELKRTASALEIELQAQQSLTESLECTVAETEAQYSSQLAQIQCLIDNLENQLAEIRCDLERQNQEYQVLLDVKARLEGEINTYWGLLDSEDSRLSCSPCSTTCTSSNTCEPCSAYVICTVENCCL
B2: Ribose-phosphate pyrophosphokinase 1 (Homo sapiens), P60891 (parent)
chain: MPNIKIFSGSSHQDLSQKIADRLGLELGKVVTKKFSNQETCVEIGESVRGEDVYIVQSGCGEINDNLMELLIMINACKIASASRVTAVIPCFPYARQDKKDKSRAPISAKLVANMLSVAGADHIITMDLHASQIQGFFDIPVDNLYAEPAVLKWIRENISEWRNCTIVSPDAGGAKRVTSIADRLNVDFALIHKERKKANEVDRMVLVGDVKDRVAILVDDMADTCGTICHAADKLLSAGATRVYAILTHGIFSGPAISRINNACFEAVVVTNTIPQEDKMKHCSKIQVIDISMILAEAIRRTHNGESVSYLFSHVPL

The variants in the first experiment derive from B1. Particulars: with wt1_human WT1, P19544.
wt1_human WT1, P19544, sequence (P19544 whole entry): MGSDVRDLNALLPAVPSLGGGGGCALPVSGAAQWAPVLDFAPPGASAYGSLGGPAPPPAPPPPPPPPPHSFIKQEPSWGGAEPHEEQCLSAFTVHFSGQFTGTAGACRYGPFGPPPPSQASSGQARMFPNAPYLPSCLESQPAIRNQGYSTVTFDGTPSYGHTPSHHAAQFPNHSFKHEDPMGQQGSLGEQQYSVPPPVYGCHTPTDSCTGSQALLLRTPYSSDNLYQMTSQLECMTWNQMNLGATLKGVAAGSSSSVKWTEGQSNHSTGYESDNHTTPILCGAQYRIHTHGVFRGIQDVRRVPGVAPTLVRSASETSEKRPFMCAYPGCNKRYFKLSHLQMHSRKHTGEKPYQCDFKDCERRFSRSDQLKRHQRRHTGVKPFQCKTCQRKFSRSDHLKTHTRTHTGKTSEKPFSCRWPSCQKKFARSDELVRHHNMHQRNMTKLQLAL
With S406L, the “effect of a mutation on the interaction” value is reported as “with no effect”.

Turning to C265Y, the “effect of a mutation on the interaction” value was “with no effect”.

With S102N, the “effect of a mutation on the interaction” value is “with no effect”.

For the variant T153M, the “effect of a mutation on the interaction” value is on record as “with no effect”.

Another experiment covers variants of B1. Particulars: with k2c4_human KRT4, P19013.
k2c4_human KRT4, P19013, sequence (P19013 whole entry): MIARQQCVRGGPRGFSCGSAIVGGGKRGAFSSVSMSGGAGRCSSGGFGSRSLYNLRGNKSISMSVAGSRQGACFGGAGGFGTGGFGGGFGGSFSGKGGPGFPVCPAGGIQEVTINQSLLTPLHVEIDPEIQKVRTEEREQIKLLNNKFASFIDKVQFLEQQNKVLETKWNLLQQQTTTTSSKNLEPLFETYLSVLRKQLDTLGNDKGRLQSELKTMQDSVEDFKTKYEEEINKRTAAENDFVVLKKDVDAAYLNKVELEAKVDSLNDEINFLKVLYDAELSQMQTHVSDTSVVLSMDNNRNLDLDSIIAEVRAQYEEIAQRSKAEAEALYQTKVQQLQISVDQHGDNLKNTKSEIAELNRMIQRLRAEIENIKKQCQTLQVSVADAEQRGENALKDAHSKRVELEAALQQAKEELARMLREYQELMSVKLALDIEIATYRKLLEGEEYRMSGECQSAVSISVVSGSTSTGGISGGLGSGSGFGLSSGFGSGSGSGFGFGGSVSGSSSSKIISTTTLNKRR
Consider S406L, for which the “effect of a mutation on the interaction” value is given as “with no effect”.

For C265Y, the “effect of a mutation on the interaction” value is “with no effect”.

Take S102N: the “effect of a mutation on the interaction” value is reported as “with no effect”.

Turning to T153M, the “effect of a mutation on the interaction” value was “with no effect”.

In the next experiment the parent is B1. Particulars: with mta1_human MTA1, Q13330.
mta1_human MTA1, Q13330, sequence (Q13330 whole entry): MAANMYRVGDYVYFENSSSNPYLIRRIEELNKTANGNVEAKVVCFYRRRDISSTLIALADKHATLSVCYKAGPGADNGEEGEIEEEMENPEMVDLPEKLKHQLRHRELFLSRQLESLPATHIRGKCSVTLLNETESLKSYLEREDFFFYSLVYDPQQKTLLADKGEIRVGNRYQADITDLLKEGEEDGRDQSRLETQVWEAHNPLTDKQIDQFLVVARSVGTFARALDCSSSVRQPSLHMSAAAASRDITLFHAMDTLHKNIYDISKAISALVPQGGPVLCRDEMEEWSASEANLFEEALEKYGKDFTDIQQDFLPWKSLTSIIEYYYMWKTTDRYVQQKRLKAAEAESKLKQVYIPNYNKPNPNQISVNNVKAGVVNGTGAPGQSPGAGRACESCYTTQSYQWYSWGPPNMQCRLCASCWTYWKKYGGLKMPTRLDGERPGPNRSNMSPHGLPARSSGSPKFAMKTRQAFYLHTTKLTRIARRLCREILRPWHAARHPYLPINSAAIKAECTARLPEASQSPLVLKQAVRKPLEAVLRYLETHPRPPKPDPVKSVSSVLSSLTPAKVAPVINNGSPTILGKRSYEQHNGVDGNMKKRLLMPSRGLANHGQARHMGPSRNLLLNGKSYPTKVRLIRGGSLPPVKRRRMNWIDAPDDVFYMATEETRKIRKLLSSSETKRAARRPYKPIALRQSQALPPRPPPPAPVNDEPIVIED
In the case of S406L, the “effect of a mutation on the interaction” value was “with no effect”.

In the case of C265Y, the “effect of a mutation on the interaction” value is recorded as “with no effect”.

For S102N, the “effect of a mutation on the interaction” value is “with no effect”.

Take T153M: the “effect of a mutation on the interaction” value was “with no effect”.

Variants of B1 are the subject of a further experiment. The note with it: with prs8_human PSMC5, P62195.
prs8_human PSMC5, P62195, sequence (P62195 whole entry): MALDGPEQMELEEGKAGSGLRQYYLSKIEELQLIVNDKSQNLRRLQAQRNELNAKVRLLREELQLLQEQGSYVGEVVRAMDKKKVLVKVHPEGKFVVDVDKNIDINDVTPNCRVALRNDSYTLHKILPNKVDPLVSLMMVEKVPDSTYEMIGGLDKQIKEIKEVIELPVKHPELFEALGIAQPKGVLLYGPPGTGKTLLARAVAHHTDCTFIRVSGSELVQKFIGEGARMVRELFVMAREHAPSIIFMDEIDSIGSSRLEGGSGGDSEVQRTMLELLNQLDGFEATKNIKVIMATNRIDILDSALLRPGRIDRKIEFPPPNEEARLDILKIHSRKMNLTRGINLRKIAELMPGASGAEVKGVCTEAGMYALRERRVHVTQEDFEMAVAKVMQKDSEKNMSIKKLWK
For S406L, the “effect of a mutation on the interaction” value was “with no effect”.

In the case of C265Y, the “effect of a mutation on the interaction” value is “with no effect”.

On to S102N, for which the “effect of a mutation on the interaction” value is “with no effect”.

In the case of T153M, the “effect of a mutation on the interaction” value is “with no effect”.

The next experiment covers variants of B1. Particulars: with snai1_human SNAI1, O95863.
snai1_human SNAI1, O95863, sequence (O95863 whole entry): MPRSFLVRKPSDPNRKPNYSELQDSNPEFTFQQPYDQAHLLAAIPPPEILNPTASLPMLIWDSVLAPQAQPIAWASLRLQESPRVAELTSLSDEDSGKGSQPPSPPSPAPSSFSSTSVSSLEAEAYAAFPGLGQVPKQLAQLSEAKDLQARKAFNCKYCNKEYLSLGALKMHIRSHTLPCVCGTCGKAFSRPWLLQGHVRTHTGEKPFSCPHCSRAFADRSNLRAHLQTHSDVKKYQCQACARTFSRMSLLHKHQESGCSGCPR
With S406L, the “effect of a mutation on the interaction” value is reported as “with no effect”.

Regarding C265Y, the “effect of a mutation on the interaction” value is “with no effect”.

As for S102N, the “effect of a mutation on the interaction” value is reported as “with no effect”.

With T153M, the “effect of a mutation on the interaction” value is reported as “with no effect”.

A further experiment covers variants of B2. The note with it: with gors2_human GORASP2, Q9H8Y8.
D183H: the “effect of a mutation on the interaction” value is reported as “with no effect”.

As to E43D, the “effect of a mutation on the interaction” value is “with no effect”.

In a further experiment the parent is B2. Particulars: with prps2_human PRPS2, P11908.
D183H: the “effect of a mutation on the interaction” value is given as “disrupting interaction strength”.

Consider E43D, for which the “effect of a mutation on the interaction” value is listed as “disrupting interaction strength”.

Variants of B2 are the subject of the next experiment. The note with it: with gors2_human GORASP2, Q9H8Y8. This is another data set of the same source.
D203H: the “effect of a mutation on the interaction” value is on record as “with no effect”.

In a further experiment the parent is B2. Particulars: with prps2_human PRPS2, P11908. This is another data set of the same source.
As to D203H, the “effect of a mutation on the interaction” value is listed as “disrupting interaction strength”.
